In this assay the target is SARS-CoV-2-S2 ECD-his (Acro, S2N-C52H5) (SARS-CoV-2, UniProt P0DTC2 686-1213). As to the kind of experiment: ELISA.

What is called EC50 is the concentration at which the effect is half-maximal.

B1: 抗体CT150 (antibody, V domains shown)
VH: QEQLVESGGGVVQPGRSLRLSCAASGFTFSSYAMHWVRQAPGEGLEWVALISYDGDNKYYADSVKGRFTISRDNSKTTLFLQMNSLRAEDTAVYYCARDRGSYFYGVDVWGQGATVTVSS
VL: DIQLTQSPSFLSASVGDRVTITCRASQDINSYLAWYQQKPGKAPKLLIYAASTLQSGVPSRFSGSGSGTEFTLTISSLQPEDFATYYCQQLNSYPIFTFGPGTKVDIK
As to B1, the concentration for a half-maximal effect (EC50) was 8.18 ng/mL.

These data come from patent CN114437205A (DOMA MEDICINE TECH SUZHOU LIMITED COMPANY, dated 2022).
